# B1: HA-tagged Activin/Nodal type I receptor ALK4 [not stated] / Myc-tagged mouse Fscn1 [mouse] (parent)
# chain 1: not shown
# chain 2: SGPRGVQALLCACTSCLQANYTCETDGACMVSIFNLDGMEHHVRTCIPKVELVPAGKPFYCLSSEDLRNTHCCYTDYCNRIDLRVPSGHLKEPEHPSMWGPVELVGIIAGPVFLLFLIIIIVFLVINYHQRVYHNRQRLDMEDPSCEMCLSKDKTLQDLVYDLSTSGSGSGLPLFVQRTVARTIVLQEIIGKGRFGEVWRGRWRGGDVAVKIFSSREERSWFREAEIYQTVMLRHENILGFIAADNKDNGTWTQLWLVSDYHEHGSLFDYLNRYTVTIEGMIKLALSAASGLAHLHMEIVGTQGKPGIAHRDLKSKNILVKKNGMCAIADLGLAVRHDAVTDTIDIAPNQRVGTKRYMAPEVLDETINMKHFDSFKCADIYALGLVYWEIARRCNSGGVHEEYQLPYYDLVPSDPSIEEMRKVVCDQKLRPNIPNWWQSYEALRVMGKMMRECWYANGAARLTALRIKKTLSQLSVQEDVKI
# B2: HA-tagged TGF-β type I receptor ALK5 [not stated] / Myc-tagged mouse Fscn1 [mouse] (parent)
# chain 1: not shown
# chain 2: LQCFCHLCTKDNFTCVTDGLCFVSVTETTDKVIHNSMCIAEIDLIPRDRPFVCAPSSKTGSVTTTYCCNQDHCNKIELPTTVKSSPGLGPVELAAVIAGPVCFVCISLMLMVYICHNRTVIHHRVPNEEDPSLDRPFISEGTTLKDLIYDMTTSGSGSGLPLLVQRTIARTIVLQESIGKGRFGEVWRGKWRGEEVAVKIFSSREERSWFREAEIYQTVMLRHENILGFIAADNKDNGTWTQLWLVSDYHEHGSLFDYLNRYTVTVEGMIKLALSTASGLAHLHMEIVGTQGKPAIAHRDLKSKNILVKKNGTCCIADLGLAVRHDSATDTIDIAPNHRVGTKRYMAPEVLDDSINMKHFESFKRADIYAMGLVFWEIARRCSIGGIHEDYQLPYYDLVPSDPSVEEMRKVVCEQKLRPNIPNRWQSCEALRVMAKIMRECWYANGAARLTALRIKKTLSQLSQQEGIKM
# Variants of: B1
# Assay: co-immunoprecipitation (IP anti-Myc, IB anti-HA) with band quantification
# Conditions: HEK293 cells, 60 mm dishes, CA-ALK4-HA 2 μg, Myc-mFscn1 1.5 μg, no TGF-β1 or Activin A in the CA lane
row,Variant,ratio to parent
1,chain 2 T183D,2.34

# Variants of: B2
# Assay: as above
# Conditions: transfected cells in 60 mm dishes, ALK5 KR-HA 2 μg, Myc-mFscn1 1.5 μg
row,Variant,ratio to parent
1,chain 2 K199R,0.56

# Same assay, conditions: HEK293 cells, 60 mm dishes, CA-ALK5-HA 2 μg, Myc-mFscn1 1.5 μg, no TGF-β1 or Activin A in the CA lane
row,Variant,ratio to parent
1,chain 2 T171D,1.87
